Source: article PMC3236736, “Jamb and Jamc Are Essential for Vertebrate Myocyte Fusion” (PLoS Biology, 2011)

B1: Jamb extracellular domain fused to rat Cd4 domains 3 and 4 (Jamb-Cd4d3+4-6H; Jamb-Cd4d3+4-bio) (domain or fragment, zebrafish, UniProt A0A0R4IGV4 19-226, looked up)
chain: VTVSSRNPKVEVHEFSDAELSCEFKTEKDTNPRIEWKRKDKEKDVSFVYYGERFVGPFQDRADIEGATVRLRRVTQADAGEYRCEVSAPSDSISLGETNVTLRVLVPPQTPSCDVPSSALTGSQVELRCRDRHSIPPAVYTWYKDNRALPIRHPNATYTVNEFTGVLIPQSHYNPGTVCQHCMYHPNYHIPNTQLTTTFQTHDLNVAA
notes: Jamb (official symbol jam2a), zebrafish, Entrez Gene 100005261; Two forms with the same ectodomain were made; They are written as one molecule because the protein stood against itself in the homophilic test; also called Jam2a; zebrafish JAM-B orthologue; source: expressed as a soluble fusion protein, purified; not shown: rat Cd4 domains 3 and 4, C-terminal, kept; His6, C-terminal, kept
B2: Jamc extracellular domain fused to rat Cd4 domains 3 and 4 (Jamc-Cd4d3+4-6H; Jamc-Cd4d3+4-bio) (domain or fragment, zebrafish, UniProt A3KPA0 24-235, looked up)
chain: VLLKSTNSKPWVNEFESIELSCMIESITTTKPRIEWKKIKNGDPSYVYFDNQISGDLERRAKIREPATLVILNATRSDSADYRCEVTAPNDQKSFDEILISLTVRVKPVVPRCSVPKSIPVGKPAELHCLEDEGYPKSQYQWFRNKEEIPLDPKSSPKFFNSTYTLDGEMGTLKFSAVRKEDAGEYYCRAKNEAGISECGPQMMEVYDINIA
notes: Jamc (official symbol jam3b), zebrafish, Entrez Gene 569217; Two forms with the same ectodomain were made; They are written as one molecule because the protein stood against itself in the homophilic test; also called Jam3b; zebrafish JAM-C orthologue; source: expressed as a soluble fusion protein, purified; not shown: rat Cd4 domains 3 and 4, C-terminal, kept; His6, C-terminal, kept

What was measured:
[1] = target: B2; test: SPR; equilibrium binding analysis with soluble recombinant extracellular domains; Jamc analyte; essentially as in ref. 33; conditions: both partners purified
[2] = target: B1; test: SPR; dissociation phase averaged over three concentrations of purified Jamc-Cd4d3+4-6H or Jamb-Cd4d3+4-6H analyte, fitted to a first-order decay; homophilic and heterophilic interactions; conditions: both partners purified

Row | Binder | Kd [1] [µM] | stoichiometry N [2]
1 | B1 | ~4.7 | –
2 | B2 | – | 1
